Several values for one entry are separate records, joined by “and”; a condition that tells them apart may be missing. Equal entries are not always repeated.
How the values were obtained:
Assay in all cases: cell-based or functional assay
C3b = C3b (UniProt P01024 23-667; P01024 749-1663, in the SPR assays biotinylated at the free -SH group with EZ-Link PEO-maleimide-activated biotin)
CP C3-convertase (C4b2a) [1] = molecular target: T1, CP C3-convertase (C4b2a) (UniProt P0C0L4 757-1446; P0C0L4 20-675; P0C0L4 1454-1744; P06681 244-752)
C4b = C4b (UniProt P0C0L4 757-1446; P0C0L4 20-675; P0C0L4 1454-1744, in the SPR assays biotinylated at the free -SH group with EZ-Link PEO-maleimide-activated biotin)
AP C3-convertase (C3bBb) [2] = molecular target: T2, AP C3-convertase (C3bBb) (UniProt P01024 23-667; P01024 749-1663; P00751 260-764)
CP C3-convertase (C4b2a) [3] = molecular target: T1, CP C3-convertase (C4b2a); remark: listed apart in the source
AP C3-convertase (C3bBb) [4] = molecular target: T2, AP C3-convertase (C3bBb); remark: listed apart in the source

T2 sequence (P01024 23-667 limits assumed, chain 1 of 3): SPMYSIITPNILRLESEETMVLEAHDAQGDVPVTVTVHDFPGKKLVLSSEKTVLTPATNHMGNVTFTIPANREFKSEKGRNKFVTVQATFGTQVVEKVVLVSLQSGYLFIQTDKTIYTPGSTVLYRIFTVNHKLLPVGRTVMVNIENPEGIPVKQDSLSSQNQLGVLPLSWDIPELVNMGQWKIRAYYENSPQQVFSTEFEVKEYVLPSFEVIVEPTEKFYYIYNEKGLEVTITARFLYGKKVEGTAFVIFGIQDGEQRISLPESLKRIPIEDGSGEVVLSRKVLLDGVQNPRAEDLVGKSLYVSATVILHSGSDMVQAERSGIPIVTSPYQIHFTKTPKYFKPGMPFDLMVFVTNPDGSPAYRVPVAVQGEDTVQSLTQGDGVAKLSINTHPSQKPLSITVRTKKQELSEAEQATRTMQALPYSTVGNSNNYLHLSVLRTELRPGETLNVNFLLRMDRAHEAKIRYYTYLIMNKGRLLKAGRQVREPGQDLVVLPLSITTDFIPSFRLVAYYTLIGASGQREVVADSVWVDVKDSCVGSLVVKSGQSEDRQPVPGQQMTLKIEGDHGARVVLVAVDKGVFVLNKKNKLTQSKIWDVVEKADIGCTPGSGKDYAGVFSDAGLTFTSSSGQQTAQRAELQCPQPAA
T2 sequence (P01024 749-1663 limits assumed, chain 2 of 3): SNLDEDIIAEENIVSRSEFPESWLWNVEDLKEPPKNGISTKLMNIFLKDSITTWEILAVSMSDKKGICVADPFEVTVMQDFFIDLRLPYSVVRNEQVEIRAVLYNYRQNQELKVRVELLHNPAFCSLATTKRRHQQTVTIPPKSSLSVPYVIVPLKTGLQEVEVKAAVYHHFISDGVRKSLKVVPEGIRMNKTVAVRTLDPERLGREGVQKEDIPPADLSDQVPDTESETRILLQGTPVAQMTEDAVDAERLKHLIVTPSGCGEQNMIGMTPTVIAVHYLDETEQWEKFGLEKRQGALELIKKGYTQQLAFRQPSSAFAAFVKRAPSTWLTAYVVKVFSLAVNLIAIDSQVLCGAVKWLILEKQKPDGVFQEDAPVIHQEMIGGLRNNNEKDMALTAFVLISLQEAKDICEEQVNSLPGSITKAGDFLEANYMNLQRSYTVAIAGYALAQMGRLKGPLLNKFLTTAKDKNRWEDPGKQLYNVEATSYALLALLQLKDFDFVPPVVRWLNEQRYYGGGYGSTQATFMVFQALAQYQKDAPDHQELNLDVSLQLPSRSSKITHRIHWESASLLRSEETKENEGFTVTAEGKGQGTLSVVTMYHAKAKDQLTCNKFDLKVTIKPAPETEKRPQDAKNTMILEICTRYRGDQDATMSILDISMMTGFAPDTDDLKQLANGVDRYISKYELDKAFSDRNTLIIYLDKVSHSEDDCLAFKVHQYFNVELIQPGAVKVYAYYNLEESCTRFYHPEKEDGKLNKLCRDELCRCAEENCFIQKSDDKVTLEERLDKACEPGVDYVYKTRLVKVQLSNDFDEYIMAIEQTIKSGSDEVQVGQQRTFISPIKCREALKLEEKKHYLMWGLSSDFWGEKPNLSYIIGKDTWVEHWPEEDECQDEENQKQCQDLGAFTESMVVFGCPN
T2 sequence (P00751 260-764 limits assumed, chain 3 of 3): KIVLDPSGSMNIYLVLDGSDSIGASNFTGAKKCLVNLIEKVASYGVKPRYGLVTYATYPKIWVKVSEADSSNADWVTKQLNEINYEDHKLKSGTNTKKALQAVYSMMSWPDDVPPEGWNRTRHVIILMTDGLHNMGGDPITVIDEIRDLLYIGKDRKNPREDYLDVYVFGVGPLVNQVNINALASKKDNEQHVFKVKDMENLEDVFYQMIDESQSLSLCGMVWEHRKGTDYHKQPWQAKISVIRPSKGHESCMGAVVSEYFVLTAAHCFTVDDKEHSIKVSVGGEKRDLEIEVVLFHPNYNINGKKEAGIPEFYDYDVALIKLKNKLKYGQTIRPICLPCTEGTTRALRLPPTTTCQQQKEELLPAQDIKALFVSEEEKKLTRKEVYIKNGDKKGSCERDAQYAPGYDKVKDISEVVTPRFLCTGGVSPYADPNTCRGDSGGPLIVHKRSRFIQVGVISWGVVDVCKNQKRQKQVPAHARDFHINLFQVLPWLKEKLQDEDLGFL
Chain of C3b (P01024 23-667 limits assumed, chain 1 of 2): as the sequence (P01024 23-667 limits assumed, chain 1 of 3) above
Chain of C3b (P01024 749-1663 limits assumed, chain 2 of 2): as the sequence (P01024 749-1663 limits assumed, chain 2 of 3) above
T1 sequence (P0C0L4 757-1446 limits assumed, chain 1 of 4): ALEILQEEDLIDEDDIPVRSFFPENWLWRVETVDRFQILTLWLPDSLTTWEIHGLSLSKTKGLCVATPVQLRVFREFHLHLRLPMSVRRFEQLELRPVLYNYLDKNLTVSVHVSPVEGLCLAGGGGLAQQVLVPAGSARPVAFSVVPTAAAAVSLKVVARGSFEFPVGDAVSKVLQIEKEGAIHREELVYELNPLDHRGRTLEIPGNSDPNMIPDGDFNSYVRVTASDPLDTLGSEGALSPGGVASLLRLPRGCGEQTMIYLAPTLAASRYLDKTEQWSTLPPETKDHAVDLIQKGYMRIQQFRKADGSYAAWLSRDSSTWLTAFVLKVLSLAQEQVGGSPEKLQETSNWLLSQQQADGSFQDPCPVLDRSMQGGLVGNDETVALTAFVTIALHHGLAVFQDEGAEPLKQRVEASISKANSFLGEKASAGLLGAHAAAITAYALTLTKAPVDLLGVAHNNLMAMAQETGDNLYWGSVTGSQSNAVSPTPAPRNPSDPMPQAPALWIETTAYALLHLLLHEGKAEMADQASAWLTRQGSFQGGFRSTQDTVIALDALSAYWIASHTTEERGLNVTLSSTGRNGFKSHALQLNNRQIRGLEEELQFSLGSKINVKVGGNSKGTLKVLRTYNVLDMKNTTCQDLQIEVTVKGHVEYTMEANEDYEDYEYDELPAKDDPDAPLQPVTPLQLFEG
T1 sequence (P0C0L4 20-675 limits assumed, chain 2 of 4): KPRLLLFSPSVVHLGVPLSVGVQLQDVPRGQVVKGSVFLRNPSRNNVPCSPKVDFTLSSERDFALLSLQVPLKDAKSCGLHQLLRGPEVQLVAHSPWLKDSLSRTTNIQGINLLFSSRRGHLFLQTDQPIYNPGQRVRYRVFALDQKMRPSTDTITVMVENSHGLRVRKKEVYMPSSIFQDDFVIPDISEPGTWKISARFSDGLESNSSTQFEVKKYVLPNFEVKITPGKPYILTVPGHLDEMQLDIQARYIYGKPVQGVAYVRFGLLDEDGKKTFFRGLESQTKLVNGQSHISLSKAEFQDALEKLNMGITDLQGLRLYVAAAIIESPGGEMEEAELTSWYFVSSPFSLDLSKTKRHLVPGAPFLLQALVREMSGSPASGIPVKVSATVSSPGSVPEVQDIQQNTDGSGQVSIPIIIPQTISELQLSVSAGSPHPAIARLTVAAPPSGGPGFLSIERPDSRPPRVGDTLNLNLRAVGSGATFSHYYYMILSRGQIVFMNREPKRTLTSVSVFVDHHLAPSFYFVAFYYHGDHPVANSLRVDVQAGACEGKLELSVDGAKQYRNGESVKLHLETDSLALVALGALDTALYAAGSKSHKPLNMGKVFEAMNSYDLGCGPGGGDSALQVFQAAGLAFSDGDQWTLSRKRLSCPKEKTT
T1 sequence (P0C0L4 1454-1744 limits assumed, chain 3 of 4): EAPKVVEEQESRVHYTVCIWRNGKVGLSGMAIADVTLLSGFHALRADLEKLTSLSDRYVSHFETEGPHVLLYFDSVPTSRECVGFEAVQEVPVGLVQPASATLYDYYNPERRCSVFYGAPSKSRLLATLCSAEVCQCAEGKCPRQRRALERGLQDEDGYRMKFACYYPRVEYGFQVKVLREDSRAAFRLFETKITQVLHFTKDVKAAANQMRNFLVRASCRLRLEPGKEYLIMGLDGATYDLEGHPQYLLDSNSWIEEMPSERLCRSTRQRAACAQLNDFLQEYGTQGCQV
T1 sequence (P06681 244-752 limits assumed, chain 4 of 4): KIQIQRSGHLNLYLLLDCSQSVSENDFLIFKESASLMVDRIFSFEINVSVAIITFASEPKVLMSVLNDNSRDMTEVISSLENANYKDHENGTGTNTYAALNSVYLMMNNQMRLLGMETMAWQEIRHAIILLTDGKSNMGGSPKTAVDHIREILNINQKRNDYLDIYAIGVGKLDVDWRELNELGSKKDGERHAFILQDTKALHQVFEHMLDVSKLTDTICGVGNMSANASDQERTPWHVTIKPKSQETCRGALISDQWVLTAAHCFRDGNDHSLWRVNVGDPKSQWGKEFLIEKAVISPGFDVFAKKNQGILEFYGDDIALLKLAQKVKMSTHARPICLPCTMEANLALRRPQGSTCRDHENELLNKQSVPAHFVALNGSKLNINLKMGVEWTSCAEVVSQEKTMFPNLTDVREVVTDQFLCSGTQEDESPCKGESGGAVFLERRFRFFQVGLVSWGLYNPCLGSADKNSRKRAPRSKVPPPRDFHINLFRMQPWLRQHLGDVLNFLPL
Chain of C4b (P0C0L4 757-1446 limits assumed, chain 1 of 3): as the sequence (P0C0L4 757-1446 limits assumed, chain 1 of 4) above
Chain of C4b (P0C0L4 20-675 limits assumed, chain 2 of 3): as the sequence (P0C0L4 20-675 limits assumed, chain 2 of 4) above
Chain of C4b (P0C0L4 1454-1744 limits assumed, chain 3 of 3): as the sequence (P0C0L4 1454-1744 limits assumed, chain 3 of 4) above

B1: D2D3M3M4 (Multi-4) (other)
chain: CEVPTRLNSASLKQPYITQNYFPVGTVVEYECRPGYRREPSLSPKLTCLQNLKWSTAVEFCKKKSCPNPGEIRNGQIDVPGGILFGATISFSCNTGYKLIGKTSSFCLISGSSVQWSDKLPICEKVLCTPPPKIKNGKHTFSEVEVFEYLDAVTYSCDPAPGPDPFSLIGESTIYCGDNSVWSRAAPECKVVKCRFPVVENGKQISGFGKKFYYKATVMFECDKGFYLDGSDTIVCDSNSTWDPPVPKCLKVL
In the case of B1, the “C3b CFA: Time (min.) for 50% cleavage of C3B α′-chain” value (C3b) is reported as 17.5 min, the “Relative C3b CFA” value (C3b) is reported as 0.25 and the “CP-DAA IC50” value (CP C3-convertase (C4b2a) [1]) is reported as 39.3 µM. For the same binder, the “Relative CP-DAA” value (CP C3-convertase (C4b2a) [1]) was 0.4, the “C4b CFA: Time (min.) for 50% cleavage of C4B α′-chain” value (C4b) was 5.5 min and the “Relative C4b CFA” value (C4b) was 1.7. For the same binder, the “AP-DAA IC50” value (AP C3-convertase (C3bBb) [2]) was greater than 0.01 µM and the “Relative AP-DAA” value (AP C3-convertase (C3bBb) [2]) was less than 0.3.

B2: D2D3M3M4 (DAF-MCP chimera) (other)
chain: CEVPTRLNSASLKQPYITQNYFPVGTVVEYECRPGYRREPSLSPKLTCLQNLKWSTAVEFCKKKSCPNPGEIRNGQIDVPGGILFGATISFSCNTGYKLFGSTSSFCLISGSSVQWSDPLPECREIYCTPPPKIKNGKHTFSEVEVFEYLDAVTYSCDPAPGPDPFSLIGESTIYCGDNSVWSRAAPECKVVKCRFPVVENGKQISGFGKKFYYKATVMFECDKGFYLDGSDTIVCDSNSTWDPPVPKCLKVL
B2 was tested, and the “AP-DAA IC50” value (AP C3-convertase (C3bBb) [2]) was 0.0024 µM and 0.0021 µM.

B3: Human MCP (M1-M4), membrane cofactor protein (other)
chain: CEEPPTFEAMELIGKPKPYYEIGERVDYKCKKGYFYIPPLATHTICDRNHTWLPVSDDACYRETCPYIRDPLNGQAVPANGTYEFGYQMHFICNEGYYLIGEEILYCELKGSVAIWSGKPPICEKVLCTPPPKIKNGKHTFSEVEVFEYLDAVTYSCDPAPGPDPFSLIGESTIYCGDNSVWSRAAPECKVVKCRFPVVENGKQISGFGKKFYYKATVMFECDKGFYLDGSDTIVCDSNSTWDPPVPKCLKVL
In the case of B3, the “Relative C3b CFA” value (C3b) is reported as 1 and the “Relative C4b CFA” value (C4b) is reported as 1.

B4: Human DAF (D1-D4), decay-accelerating factor (other)
chain: CGLPPDVPNAQPALEGRTSFPEDTVITYKCEESFVKIPGEKDSVICLKGSQWSDIEEFCNRSCEVPTRLNSASLKQPYITQNYFPVGTVVEYECRPGYRREPSLSPKLTCLQNLKWSTAVEFCKKKSCPNPGEIRNGQIDVPGGILFGATISFSCNTGYKLFGSTSSFCLISGSSVQWSDPLPECREIYCPAPPQIDNGIIQGERDHYGYRQSVTYACNKGFTMIGEHSIYCTVNNDEGEWSGPPPECRGKS
For B4, the “Relative CP-DAA” value (CP C3-convertase (C4b2a) [1]) was 1 and the “AP-DAA IC50” value (AP C3-convertase (C3bBb) [2]) was 0.0031 µM and 0.0023 µM and 0.0011 µM.

B5: D2M2-4 (DAF-MCP chimera with the DAF D2-D3 linker) (other)
chain: CEVPTRLNSASLKQPYITQNYFPVGTVVEYECRPGYRREPSLSPKLTCLQNLKWSTAVEFCKKKSCPYIRDPLNGQAVPANGTYEFGYQMHFICNEGYYLIGEEILYCELKGSVAIWSGKPPICEKVLCTPPPKIKNGKHTFSEVEVFEYLDAVTYSCDPAPGPDPFSLIGESTIYCGDNSVWSRAAPECKVVKCRFPVVENGKQISGFGKKFYYKATVMFECDKGFYLDGSDTIVCDSNSTWDPPVPKCLKVL
With B5 the “CP-DAA IC50” value (CP C3-convertase (C4b2a) [1]) was 457 µM, the “Relative CP-DAA” value (CP C3-convertase (C4b2a) [1]) was 0.03 and the “AP-DAA IC50” value (AP C3-convertase (C3bBb) [2]) was greater than 0.019 µM. For the same binder, the “Relative AP-DAA” value (AP C3-convertase (C3bBb) [2]) was less than 0.1.

B6: D2M2-4 (ML) (DAF-MCP chimera with the MCP M1-M2 linker YRET) (other)
chain: CEVPTRLNSASLKQPYITQNYFPVGTVVEYECRPGYRREPSLSPKLTCLQNLKWSTAVEFCYRETCPYIRDPLNGQAVPANGTYEFGYQMHFICNEGYYLIGEEILYCELKGSVAIWSGKPPICEKVLCTPPPKIKNGKHTFSEVEVFEYLDAVTYSCDPAPGPDPFSLIGESTIYCGDNSVWSRAAPECKVVKCRFPVVENGKQISGFGKKFYYKATVMFECDKGFYLDGSDTIVCDSNSTWDPPVPKCLKVL
B6 was tested, and the “CP-DAA IC50” value (CP C3-convertase (C4b2a) [1]) was greater than 1000 µM, the “Relative CP-DAA” value (CP C3-convertase (C4b2a) [1]) was less than 0.01 and the “AP-DAA IC50” value (AP C3-convertase (C3bBb) [2]) was greater than 0.01 µM. The “Relative AP-DAA” value (AP C3-convertase (C3bBb) [2]) was less than 0.1.

B7: D2M2-4 (L161K) (other)
chain: CEVPTRLNSASLKQPYITQNYFPVGTVVEYECRPGYRREPSLSPKLTCLQNLKWSTAVEFCKKKSCPYIRDPLNGQAVPANGTYEFGYQMHFICNEGYYLIGEEILYCELKGSVAIWSGKPPICEKVKCTPPPKIKNGKHTFSEVEVFEYLDAVTYSCDPAPGPDPFSLIGESTIYCGDNSVWSRAAPECKVVKCRFPVVENGKQISGFGKKFYYKATVMFECDKGFYLDGSDTIVCDSNSTWDPPVPKCLKVL
With B7 the “CP-DAA, fold increase” value (CP C3-convertase (C4b2a) [3]) was roughly 2 fold and the “AP-DAA, fold gain compared to D2M2-4” value (AP C3-convertase (C3bBb) [4]) was 3.4 fold.

B8: D2M2-4 (E136Q) (D2) (other)
chain: CEVPTRLNSASLKQPYITQNYFPVGTVVEYECRPGYRRQPSLSPKLTCLQNLKWSTAVEFCKKKSCPYIRDPLNGQAVPANGTYEFGYQMHFICNEGYYLIGEEILYCELKGSVAIWSGKPPICEKVLCTPPPKIKNGKHTFSEVEVFEYLDAVTYSCDPAPGPDPFSLIGESTIYCGDNSVWSRAAPECKVVKCRFPVVENGKQISGFGKKFYYKATVMFECDKGFYLDGSDTIVCDSNSTWDPPVPKCLKVL
For B8, the “AP-DAA, fold increase compared to D2M2-4” value (AP C3-convertase (C3bBb) [4]) was 5.6 fold.

B9: D2M2-4 (Y101N) (other)
chain: CEVPTRLNSASLKQPYITQNYFPVGTVVEYECRPGYRREPSLSPKLTCLQNLKWSTAVEFCKKKSCPNIRDPLNGQAVPANGTYEFGYQMHFICNEGYYLIGEEILYCELKGSVAIWSGKPPICEKVLCTPPPKIKNGKHTFSEVEVFEYLDAVTYSCDPAPGPDPFSLIGESTIYCGDNSVWSRAAPECKVVKCRFPVVENGKQISGFGKKFYYKATVMFECDKGFYLDGSDTIVCDSNSTWDPPVPKCLKVL
For B9, the “AP-DAA, fold increase compared to D2M2-4” value (AP C3-convertase (C3bBb) [4]) was 7.2 fold.

B10: D2M2-4 (I134A) (other)
chain: CEVPTRLNSASLKQPYITQNYFPVGTVVEYECRPGYRREPSLSPKLTCLQNLKWSTAVEFCKKKSCPYIRDPLNGQAVPANGTYEFGYQMHFICNEGYYLAGEEILYCELKGSVAIWSGKPPICEKVLCTPPPKIKNGKHTFSEVEVFEYLDAVTYSCDPAPGPDPFSLIGESTIYCGDNSVWSRAAPECKVVKCRFPVVENGKQISGFGKKFYYKATVMFECDKGFYLDGSDTIVCDSNSTWDPPVPKCLKVL
For B10, the “CP-DAA, fold increase” value (CP C3-convertase (C4b2a) [3]) was roughly 2 fold and the “AP-DAA, fold gain compared to D2M2-4” value (AP C3-convertase (C3bBb) [4]) was 6.7 fold.

— US20220195012A1 (NATIONAL CENTRE FOR CELL SCIENCE, published 2022)
